# According to paper PMC314469, “Protein Interaction Networks by Proteome Peptide Scanning” (PLoS Biology, 2004):
# T1: Boi1 SH3 (BOI1_YEAST), P38041
# T1 chain: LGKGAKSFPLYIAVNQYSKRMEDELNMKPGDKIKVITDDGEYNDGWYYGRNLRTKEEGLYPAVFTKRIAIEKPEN
# T2: Boi2 SH3 (BOI2_YEAST), P39969
# T2 chain: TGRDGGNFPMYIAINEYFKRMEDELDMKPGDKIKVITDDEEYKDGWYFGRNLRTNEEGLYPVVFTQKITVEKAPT
# T3: Rvs167 SH3 (RV167_YEAST), P39743
# T3 chain: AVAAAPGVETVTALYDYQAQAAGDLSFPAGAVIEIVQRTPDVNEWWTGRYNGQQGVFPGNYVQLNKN
# T4: Yfr024 SH3 (LSB3_YEAST), P43603
# T4 chain: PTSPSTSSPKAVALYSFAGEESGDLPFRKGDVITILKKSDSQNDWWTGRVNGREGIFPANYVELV
# T5: Yhr016c SH3 (YSC84_YEAST), P32793
# T5 chain: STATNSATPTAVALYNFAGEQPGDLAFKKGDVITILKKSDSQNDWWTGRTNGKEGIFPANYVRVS
# Tests used:
# Assay in all cases: SPOT array
# [1] = target: T1, Boi1 SH3 (BOI1_YEAST), P38041
# [2] = target: T2, Boi2 SH3 (BOI2_YEAST), P39969
# [3] = target: T3, Rvs167 SH3 (RV167_YEAST), P39743
# [4] = target: T4, Yfr024 SH3 (LSB3_YEAST), P43603
# [5] = target: T5, Yhr016c SH3 (YSC84_YEAST), P32793
"normalised SPOT signal, Boehringer light units (BLU); mean over the file's lines of this peptide [1]","normalised SPOT signal, Boehringer light units (BLU); mean over the file's lines of this peptide [2]","normalised SPOT signal, Boehringer light units (BLU); mean over the file's lines of this peptide [3]","normalised SPOT signal, Boehringer light units (BLU); mean over the file's lines of this peptide [4]","normalised SPOT signal, Boehringer light units (BLU); mean over the file's lines of this peptide [5]",Binder
160,1.3,79.2,178,92.4,KISPSAPSKDSFTK [YAR002W 350-363]
103,49.2,12.2,332,109,KKDPFPPPKDLLVQ [YGR140W 421-434]
136,32.6,9.1,808,85.9,KKLPTGPSKKRQRK [YER164W 1280-1293]
244,25.8,35.2,9910,151,KNFPTLPSKINSRH [YLL015W 63-76]
190,46.3,151,241,288,KKDPNAPKRRLSAY [YBR089C-A 21-34]
32,180,178,3000,682,KIMPPTPAKKVEFI [YAL024C 312-325]
181,68.1,9.5,149,408,KKYPRKPKKNLNLG [YDR485C 336-349]
110,46.7,2650,7040,1790,KKSPRLPHRNKKVT [YPR097W 347-360]
76,90.6,15.8,11.4,94.6,KLEPENPQKPSNTH [YFL054C 238-251]
239,15.3,86.7,10700,95.4,KLRPDLPVKNFVVK [YFR030W 641-654]
309,54.4,67.9,98.6,61.3,KNLPLNPSKKLEGK [YDL027C 313-326]
17.6,16.9,66,196,105,KLGPDTPIKVAGPL [YOR219C 616-629]
181,71.2,280,13400,2960,KMTPSTPVRSISPI [YJR092W 851-864]
9.1,34.1,45.3,3700,0,KLKPSLPNKLVGKY [YPL242C 77-90]
20000,219,11100,30600,21700,KLPPRLPHRAAQRR [YIR018W 29-42]
56.8,22,33.3,1300,112,KKPPKIPKKVYTLE [YPR104C 439-452]
2120,45.2,29100,10800,3830,KNLPTIPIRLSGID [YGL085W 143-156]
112,343,425,2490,404,KMFPFNPAKIKKDD [YLR115W 535-548]
57,19.5,25.3,286,162,KKDPNAPKRALSAY [YPR052C 15-28]
142,64.9,83.7,995,792,KGAPFFPNKTFRKL [YPR144C 138-151]
180,33.5,26.7,252,15.7,KNSPLAPIKKNVEL [YLL021W 1085-1098]
92,27.4,21.7,907,65.2,KHAPFIPVKPALEK [YPR095C 158-171]
